# In publication PMC7275063, “Rab35-regulated lipid turnover by myotubularins represses mTORC1 activity and controls myelin growth” (Nature Communications, 2020):
# B1: N-terminally FLAG-tagged MTMR13 (natural protein)
# chain: not shown
# notes: MTMR13 (SBF2), full length, printed as aa1-1848, 5547 bp; other constructs end at aa1849; Gift plasmid in pcDNA3.1; the printed length of 1849 codons fits the human protein; also called FLAG-MTMR13; source: HEK293T, transfected, in lysate; not shown: FLAG, N-terminal, kept
# Molecular target: eGFP-Rab35CA (Q67L), GTP-locked, constitutively active (mouse, UniProt Q6PHN9 1-201, Q67L)
# Assay: co-IP; eGFP-Rab35CA or -DN captured on eGFP-Trap_MA beads from lysates of HEK293T cells co-expressing MTMR13 constructs, 24 h after transfection; 90 min at 4 °C; immunoblot
# Conditions: partners not purified
# eGFP-Rab35CA (Q67L), GTP-locked, constitutively active, sequence (Q6PHN9 whole entry Q67L): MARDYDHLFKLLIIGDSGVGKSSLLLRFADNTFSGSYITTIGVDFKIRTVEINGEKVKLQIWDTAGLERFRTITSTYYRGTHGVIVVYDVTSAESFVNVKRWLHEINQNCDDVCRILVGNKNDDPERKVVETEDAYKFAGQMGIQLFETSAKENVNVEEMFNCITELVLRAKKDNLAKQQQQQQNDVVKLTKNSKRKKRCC
binder,measurement,value
B1,ratio of FLAG-MTMR13 bound to CA over DN,11.6
